Results: article PMC5995969, “Structural basis for the regulation of human 5,10-methylenetetrahydrofolate reductase by phosphorylation and S-adenosylmethionine inhibition” (Nature Communications, 2018)

B1: full-length recombinant human MTHFR (HsMTHFR1–656), as purified (phosphorylated) (enzyme)
chain: not shown
modifications: phosphorylated with partial occupancy, up to ten sites occupied simultaneously: Ser9, Ser10, Ser18, Ser20, Ser21, Ser23, Ser25, Ser26, Ser29, Ser30, Thr34, Tyr90, Thr94, Ser103, Ser394, Thr451
notes: human 5,10-methylenetetrahydrofolate reductase (MTHFR), 656 amino acids, residues 1–656, numbered according to NP_005948.3; also called 5,10-methylenetetrahydrofolate reductase; phosphorylated HsMTHFR_(1–656); source: Sf9 (baculovirus), purified (Ni-NTA, Superdex 200, tag cleaved by TEV protease, re-passaged over Ni-NTA); not shown: FLAG, C-terminal, cleaved; His10, C-terminal, cleaved
B2: HsMTHFR38–644 (domain or fragment)
chain: not shown
notes: Not phosphorylated; Native and SeMet-derivatized protein were crystallized; also called truncated HsMTHFR; crystallized construct
B3: CIP-treated HsMTHFR1–656 (dephosphorylated) (enzyme)
chain: not shown
notes: human 5,10-methylenetetrahydrofolate reductase (MTHFR), residues 1–656, numbered according to NP_005948.3; Same construct as m1 after removal of 9 or 10 phosphate groups by CIP; Some residues of the cleaved C-terminal tag may be left; also called HsMTHFR_(1–656) (CIP); dephosphorylated HsMTHFR_(1–656); not shown: FLAG, C-terminal, cleaved; His10, C-terminal, cleaved

Target: the molecule itself
Assay: native MS; protein desalted into 50 mM ammonium acetate pH 6.5, infused directly, positive ion ESI-QTOF; as purified or after CIP treatment

Protein	stoichiometry N
B1	2
B2	2
B3	2
